The target in test [1] is recombinant human osteopontin protein (GST-OPN-his, purified in house) (human) (UniProt P10451). Description: cell-based or functional assay.
Substrate in test [2]: OPN antigen peptide YGLRSKS labeled with biotin (mouse and human (same sequence around the thrombin cleavage site))
The experiment in a line: direct ELISA, biotinylated peptide on avidin-coated plate, purified IgG serially diluted, 4-parameter fit. In general terms: In an ELISA, binding on a coated surface is turned into a signal by an enzyme label.

Chain of UniProt P10451 (P10451 17-314): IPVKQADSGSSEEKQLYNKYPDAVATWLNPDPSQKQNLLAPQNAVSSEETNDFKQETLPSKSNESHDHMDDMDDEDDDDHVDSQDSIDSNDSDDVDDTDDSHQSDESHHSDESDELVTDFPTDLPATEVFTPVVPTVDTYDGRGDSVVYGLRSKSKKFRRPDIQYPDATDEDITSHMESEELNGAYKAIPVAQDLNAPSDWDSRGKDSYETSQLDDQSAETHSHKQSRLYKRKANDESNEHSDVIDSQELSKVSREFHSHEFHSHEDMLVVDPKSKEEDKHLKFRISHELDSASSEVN

B1: G7 rabbit monoclonal anti-osteopontin antibody (antibody, V domains shown)
VH: QSVKESEGGLFKPTDTLTLTCTVSGFSLSSYGVSWVRQAPGNGLEWIGFIDKYGRTHYASWAKSRSTITRNTNENTVTLKMTSLTAADTATFLCARDDYRPAYGFDIWGPGTLVTVSS
VL: QVLTQTASPVSAAVGSTVTINCQASQSVYNNNWLSWFQQKPGQPPKQLIYGASTLPSGVSSRFKGSGSGTQFTLTISDVQCDDAATYYCLGGYHWSTADCNVFGGGTEVVVKG
For the molecule B1, the % inhibition of thrombin cleavage of human OPN-FL (OPN-R generated, OPN-R specific ELISA) in test [1] amounted to 60.1%. Further, the EC50 in test [2] was found to be 93.2 ng/mL.

B2: A2 rabbit monoclonal anti-osteopontin antibody (antibody, V domains shown)
VH: QSVKESEGGLFKPTDTLTLTCKASGFTVSSYDMGWLRQAPGNGLESIGAIGSDGSEYYVSWARGRTAITRNTNQNTVTLKMTSLTAADTATYFCARDSHYSYGYDYDIWGPGTLVTVSS
VL: QVLTQTPSPVSAAVGGTVSISCQSSQSIYSNYLSWYQQKPGQPPKLLIYYASTLASGVPSRFKGSGSGTQFTLTISGVQCDDAATYYCQGTYYVTGWYDAFGGGTEVVVKG
For the molecule B2, the % inhibition of thrombin cleavage of human OPN-FL (OPN-R generated, OPN-R specific ELISA) in test [1] came to 82%. Besides, in test [2], the EC50 is 2.6 ng/mL.

B3: A6 rabbit monoclonal anti-osteopontin antibody (antibody, V domains shown)
VH: QSVKESEGGLFKPTDTLTLTCKASGFTVSSYDMGWLRQAPGNGLESIGAIGSDGSEYYVSWARGRTTITRNTNQNTVTLKMTSLTAADTATYFCARDSHYSYGYDYDIWGPGTLVTVSS
VL: QVLTQTPSPVSAAVGGTVSISCQSSQSIYSNYLSWYQQKPGQPPKLLIYYASTLASGVPSRFKGSGSGTQFTLTISGVQCDDAATYYCQGTYYVTGWYDAFGGGTEVVVKG
With B3, in test [1], the % inhibition of thrombin cleavage of human OPN-FL (OPN-R generated, OPN-R specific ELISA) stood at 95.4%. The EC50 in test [2] was 3.2 ng/mL.

One may read the EC50 as the midpoint of the concentration-response curve.
